Measurements reported in publication PMC8303269, “ERα36–GPER1 Collaboration Inhibits TLR4/NFκB-Induced Pro-Inflammatory Activity in Breast Cancer Cells” (International Journal of Molecular Sciences, 2021).

Molecular target: T1, G-protein Estrogen Receptor 1 (GPER1) (human (endogenous in SKBR3), UniProt Q99527 1-375)
T1 construct: Endogenous protein precipitated and detected with mouse monoclonal anti-human GPER1 (clone 2F2); also called GPR30; source: endogenous, SKBR3 cells (fixed cells; whole-cell extract)
Test: proximity ligation; Duolink In Situ, bright field; fixed SKBR3 cells, endogenous proteins; rabbit polyclonal anti-ERα36 and mouse monoclonal anti-GPER1; cells treated with E2 (10^-7 M) and/or LPS
Settings: partners not purified

T1 sequence (Q99527 whole entry): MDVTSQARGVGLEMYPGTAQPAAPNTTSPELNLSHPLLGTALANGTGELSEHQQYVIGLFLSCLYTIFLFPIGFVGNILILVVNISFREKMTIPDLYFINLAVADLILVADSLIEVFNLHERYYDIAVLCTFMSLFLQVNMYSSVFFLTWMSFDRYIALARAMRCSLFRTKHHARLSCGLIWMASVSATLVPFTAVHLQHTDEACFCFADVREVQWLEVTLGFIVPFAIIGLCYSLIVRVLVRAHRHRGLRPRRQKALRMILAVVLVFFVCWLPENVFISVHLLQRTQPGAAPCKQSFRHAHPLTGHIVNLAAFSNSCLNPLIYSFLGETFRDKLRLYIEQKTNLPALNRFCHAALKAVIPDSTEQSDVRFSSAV

B1: estrogen receptor alpha 36 (ERα36) (receptor, human (endogenous in SKBR3), UniProt P03372-4 1-310, looked up)
chain: MAMESAKETRYCAVCNDYASGYHYGVWSCEGCKAFFKRSIQGHNDYMCPATNQCTIDKNRRKSCQACRLRKCYEVGMMKGGIRKDRRGGRMLKHKRQRDDGEGRGEVGSAGDMRAANLWPSPLMIKRSKKNSLALSLTADQMVSALLDAEPPILYSEYDPTRPFSEASMMGLLTNLADRELVHMINWAKRVPGFVDLTLHDQVHLLECAWLEILMIGLVWRSMEHPGKLLFAPNLLLDRNQGKCVEGMVEIFDMLLATSSRFRMMNLQGEEFVCLKSIILLNSGISHVEAKKRILNLHPKIFGNKWFPRV
notes: called estrogen receptor isoform 4 in the NCBI database; Endogenous protein detected with a rabbit polyclonal anti-ERα36 antibody; also called ERa36; estrogen receptor isoform 4; source: endogenous, SKBR3 cells (fixed cells; whole-cell extract)
fold increase of interacting pairs (PLA dots) with LPS: ~5 fold
